Experiments:
[1] = molecular target: r150, 150 kDa GPI-anchored TGF-β1 binding protein (membrane anchored form) (human) (UniProt Q6YHK3); assay: competition of unlabeled TGF-β3 with 125I-TGF-β1 on keratinocytes, affinity cross-link labeling, densitometry
[2] = molecular target: Transforming growth factor-β1 (UniProt P01137); assay: 125I-TGF-β1 (50 pM) binding to MvLu1 cells with concentrated supernatant of PIPLC treated HaCaT cells, dose 1 (one T-25 flask, about 1x10^6 cells)
[3] = molecular target: Transforming growth factor-β1 (UniProt P01137); assay: 125I-TGF-β1 (50 pM) binding to MvLu1 cells with concentrated supernatant of PIPLC treated HaCaT cells, dose 2
[4] = molecular target: Transforming growth factor-β1 (UniProt P01137); assay: 125I-TGF-β1 (50 pM) binding to MvLu1 cells with concentrated supernatant of untreated HaCaT cells (r150 released by an endogenous phospholipase), dose 1
[5] = molecular target: Transforming growth factor-β1 (UniProt P01137); assay: 125I-TGF-β1 (50 pM) binding to MvLu1 cells with concentrated supernatant of untreated HaCaT cells (r150 released by an endogenous phospholipase), dose 2

Transforming growth factor-β1, sequence (P01137 279-390 limits assumed): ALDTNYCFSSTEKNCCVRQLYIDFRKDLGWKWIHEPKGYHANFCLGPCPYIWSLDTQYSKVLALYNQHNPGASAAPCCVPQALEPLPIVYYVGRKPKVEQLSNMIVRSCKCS
r150, 150 kDa GPI-anchored TGF-β1 binding protein (membrane anchored form) (human), sequence (Q6YHK3 other isoform, or with tags, fused parts or gaps limits assumed): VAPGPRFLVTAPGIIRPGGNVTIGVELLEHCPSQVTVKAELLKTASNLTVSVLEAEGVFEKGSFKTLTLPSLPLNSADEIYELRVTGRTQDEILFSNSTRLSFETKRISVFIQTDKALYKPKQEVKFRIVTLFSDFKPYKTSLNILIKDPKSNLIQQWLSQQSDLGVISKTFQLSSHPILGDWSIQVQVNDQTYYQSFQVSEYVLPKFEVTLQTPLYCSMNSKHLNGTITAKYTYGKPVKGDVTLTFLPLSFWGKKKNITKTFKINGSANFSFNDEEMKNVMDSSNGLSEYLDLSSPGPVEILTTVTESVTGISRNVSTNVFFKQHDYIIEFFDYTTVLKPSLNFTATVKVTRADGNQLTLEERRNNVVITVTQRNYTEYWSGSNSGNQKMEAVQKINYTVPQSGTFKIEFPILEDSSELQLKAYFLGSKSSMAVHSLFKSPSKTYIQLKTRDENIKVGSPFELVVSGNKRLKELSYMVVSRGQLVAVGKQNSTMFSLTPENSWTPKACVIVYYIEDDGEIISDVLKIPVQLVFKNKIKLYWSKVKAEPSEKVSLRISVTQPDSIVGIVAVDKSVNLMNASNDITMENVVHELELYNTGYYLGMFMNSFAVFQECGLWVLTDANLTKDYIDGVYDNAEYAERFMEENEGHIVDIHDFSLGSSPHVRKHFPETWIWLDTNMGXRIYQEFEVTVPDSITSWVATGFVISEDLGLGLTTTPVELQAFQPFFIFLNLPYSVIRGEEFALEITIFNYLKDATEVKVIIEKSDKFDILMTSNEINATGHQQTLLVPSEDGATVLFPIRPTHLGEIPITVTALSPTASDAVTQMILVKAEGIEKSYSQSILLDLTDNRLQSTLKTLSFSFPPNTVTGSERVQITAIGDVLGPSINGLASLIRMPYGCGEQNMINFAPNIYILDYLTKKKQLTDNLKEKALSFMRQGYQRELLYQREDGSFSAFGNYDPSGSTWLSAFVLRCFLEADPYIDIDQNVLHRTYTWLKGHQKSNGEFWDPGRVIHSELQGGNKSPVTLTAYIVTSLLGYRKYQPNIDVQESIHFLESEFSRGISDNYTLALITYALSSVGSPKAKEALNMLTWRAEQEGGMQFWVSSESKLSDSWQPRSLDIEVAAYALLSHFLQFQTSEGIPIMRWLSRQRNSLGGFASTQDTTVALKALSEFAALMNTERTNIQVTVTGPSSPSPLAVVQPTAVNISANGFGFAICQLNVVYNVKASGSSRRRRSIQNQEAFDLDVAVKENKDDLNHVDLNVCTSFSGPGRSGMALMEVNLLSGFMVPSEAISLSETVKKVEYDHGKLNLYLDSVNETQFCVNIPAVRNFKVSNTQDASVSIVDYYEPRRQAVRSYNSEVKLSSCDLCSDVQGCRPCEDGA

| ratio of the concentration for half-maximal inhibition of 125I-TGF-β1 binding, r150 against the types I or II receptors [1] [fold] | percent inhibition of 125I-TGF-β1 binding to MvLu1 cells [2] [%] | percent inhibition of 125I-TGF-β1 binding to MvLu1 cells [3] [%] | percent inhibition of 125I-TGF-β1 binding to MvLu1 cells [4] [%] | percent inhibition of 125I-TGF-β1 binding to MvLu1 cells [5] [%] | Substance |
| --- | --- | --- | --- | --- | --- |
| 6 | – | – | – | – | Transforming growth factor-β3 (from UniProt P10600 301-412) (ligand) |
| – | 33 | 50 | 15 | 31 | soluble r150 (released from the cell surface by PIPLC or by an endogenous phospholipase C) (from UniProt Q6YHK3 22-1420) (receptor) |

Source: patent US20040191860A1
